The binders below were run against T1, HLA-A*24 (assay: UV peptide-exchange ELISA (anti-b2m); yield grade + = >10%).
T1 construct: Monomers captured on streptavidin plates; also called peptide-receptive MHC molecules; MHC complexes
Source text: Candidate peptides for T cell based therapies according to the present invention were further tested for their MHC binding capacity (affinity). The individual peptide-MHC complexes were produced by UV-ligand exchange, where a UV-sensitive peptide is cleaved upon UV-irradiation, and exchanged with the peptide of interest as analyzed. Only peptide candidates that can effectively bind and stabilize the peptide-receptive MHC molecules prevent dissociation of the MHC complexes. To determine the yield of the exchange reaction, an ELISA was performed based on the detection of the light chain (p2m) of stabilized MHC complexes. The assay was performed as generally described in Rodenko et al. (Rodenko et al., 2006)
96 well MAXISorp plates (NUNC) were coated over night with 2 ug/ml streptavidin in PBS at room temperature, washed 4× and blocked for 1 h at 37° C. in 2% BSA containing blocking buffer. Refolded HLA-A*02:01/MLA-001 monomers served as standards, covering the range of 15-500 ng/ml. Peptide-MHC monomers of the UV-exchange reaction were diluted 100-fold in blocking buffer. Samples were incubated for 1 h at 37° C., washed four times, incubated with 2 ug/ml HRP conjugated anti-β2m for 1h at 37° C., washed again and detected with TMB solution that is stopped with […]. Absorption was measured at 450 nm. Candidate peptides that show a high exchange yield (preferably higher than 50%, most preferred higher than 75%) are generally preferred for a generation and production of antibodies or fragments thereof, and/or T cell receptors or fragments thereof, as they show sufficient avidity to the MHC molecules and prevent dissociation of the MHC complexes.

| Binder | peptide exchange yield [%] |
| --- | --- |
| VQADAKLLF (also called VQADAKLLF) [C20-002] | 10 to 20 |
| RVHANPLLI (also called RVHANPLLI) [APOB-081] | 10 to 20 |
| LQIPVSPSF (also called LQIPVSPSF) [MAGEC1-004] | 10 to 20 |
| LIFALALAAF (also called LIFALALAAF) [GAST-001] | 10 to 20 |
| ISFSDTVNVW (also called ISFSDTVNVW) [ITIH6-001] | 10 to 20 |
| KYKNPYGF (also called KYKNPYGF) [MMP20-001] | 10 to 20 |
| ATATLHLIF (also called ATATLHLIF) [PCD-007] | 10 to 20 |
| IVTFMNKTLGTF (also called IVTFMNKTLGTF) [ADAM29-001] | 10 to 20 |
| SHSDHEFLF (also called SHSDHEFLF) [ARSH-001] | 10 to 20 |
| FPPTPPLF (also called FPPTPPLF) [BCL11A-002] | 10 to 20 |
| GTGKLFWVF (also called GTGKLFWVF) [BTL-003] | 10 to 20 |
| VTPKMLISF (also called VTPKMLISF) [OR5H8P-001] | 10 to 20 |

Other lines, results leading:

| peptide exchange yield [%] | Binder |
| --- | --- |
| 10 to 20 | KLRALSILF (also called KLRALSILF) [PTP-039] |
| 10 to 20 | QHAWLPLTI (also called QHAWLPLTI) [TCL1A-004] |
| 10 to 20 | SYIVDGKII (also called SYIVDGKII) [PSG9-001] |
| 10 to 20 | KQHAWLPLTI (also called KQHAWLPLTI) [TCL1A-003] |
| 10 to 20 | QFYSTLPNTI (also called QFYSTLPNTI) [ROS-009] |
| 10 to 20 | KQVIGIHTF (also called KQVIGIHTF) [SFMBT1-002] |

From patent US20190352359A1 (IMMATICS BIOTECHNOLOGIES, published 2019)
